Substitutions are numbered along the chain they refer to.
B1: Hu1B5-H6/Hu1B5-L1: humanized anti-A2aR IgG1 FES antibody; HCVR SEQ ID NO:57, LCVR SEQ ID NO:71 (antibody, V domains shown)
VH: EVQLVQSGAEVKKPGESLRISCKTSGFTFTRFWMNWVRQMPGKGLEWIGRIDPYDSETQYNHKFWDHATLSVDKSSSTVYLQWSSLKASDTAMYYCGRSLYGKGDYWGQGTTVTVSS
VL: DVVMTQSPLSLPVTLGQPASISCRSSQSIVHSNGNTYLEWFQQRPGQSPRRLIYKVSNRFSGVPDRFSGSGSGTDFTLKISRVEAEDVGVYYCFQGSHVPLTFGGGTKVEIK
modifications: IgG1 FES constant regions
B2: Hu1B5-H1/Hu1B5-L2: humanized anti-A2aR IgG1 FES antibody; HCVR SEQ ID NO:51, LCVR SEQ ID NO:72 (antibody, V domains shown)
VH: QVQLVQSGAEVKKPGASVKVSCKASGFTFTRFWMNWVRQAPGQGLEWMGRIDPYDSETQYNHKFWDRVTMTRDTSTSTVYMELSSLRSEDTAVYYCGRSLYGKGDYWGQGTTVTVSS
VL: B1 VL with F41Y
B3: Hu1B5-H2/Hu1B5-L1: humanized anti-A2aR IgG1 FES antibody; HCVR SEQ ID NO:52, LCVR SEQ ID NO:71 (antibody, V domains shown)
VH: B2 VH with Q1E, A24T, R72V
VL: B1 VL
modifications: IgG1 FES constant regions
B4: Hu1B5-H2.1/Hu1B5-L1: humanized anti-A2aR IgG1 FES antibody; HCVR SEQ ID NO:53, LCVR SEQ ID NO:71 (antibody, V domains shown)
VH: B2 VH with Q1E, A24T, M48I, R72V
VL: B1 VL
B5: Hu3F6-H4/Hu3F6-L1: humanized anti-A2aR IgG1 FES antibody; HCVR SEQ ID NO:61, LCVR SEQ ID NO:76 (antibody, V domains shown)
VH: EVQLVQSGAEVKKPGASVKVSCKTSGFAFTSYWMNWVRQAPGQGLEWIGRIDPSDSEAHYHHKFWGRATLTVDKSSSTVYMELSSLRSEDTAVYYCLRSLYGKGDYWGHGTTVTVSS
VL: B1 VL with I29L, S32R, F94Y
B6: Hu3F8-H5/Hu3F8-L1: humanized anti-A2aR IgG1 FES antibody; HCVR SEQ ID NO:68, LCVR SEQ ID NO:84 (antibody, V domains shown)
VH: B5 VH with T24A, A28T, S31R, A58T, H61N, H62A, S76T, H109Q
VL: B1 VL with F94Y
B7: Hu3F8-H3/Hu3F8-L1: humanized anti-A2aR IgG1 FES antibody; HCVR SEQ ID NO:66, LCVR SEQ ID NO:84 (antibody, V domains shown)
VH: B5 VH with T24A, A28T, S31R, A58T, H61N, K74T, S76T, H109Q
VL: B1 VL with F94Y
B8: Hu3F8-H5/Hu3F8-L2: humanized anti-A2aR IgG1 FES antibody; HCVR SEQ ID NO:68, LCVR SEQ ID NO:85 (antibody, V domains shown)
VH: B5 VH with T24A, A28T, S31R, A58T, H61N, H62A, S76T, H109Q
VL: B1 VL with F41Y, F94Y
B9: Hu3F8-H4/Hu3F8-L2: humanized anti-A2aR IgG1 FES antibody; HCVR SEQ ID NO:67, LCVR SEQ ID NO:85 (antibody, V domains shown)
VH: B5 VH with T24A, A28T, S31R, A58T, H61N, S76T, H109Q
VL: B1 VL with F41Y, F94Y
B10: Hu3F6-H3/Hu3F6-L2: humanized anti-A2aR IgG1 FES antibody; HCVR SEQ ID NO:60, LCVR SEQ ID NO:77 (antibody, V domains shown)
VH: B5 VH with K74T
VL: B1 VL with I29L, S32R, F41Y, F94Y
B11: Hu3F6-H3/Hu3F6-L1: humanized anti-A2aR IgG1 FES antibody; HCVR SEQ ID NO:60, LCVR SEQ ID NO:76 (antibody, V domains shown)
VH: B5 VH with K74T
VL: B1 VL with I29L, S32R, F94Y
B12: Hu3F6-H2/Hu3F6-L2: humanized anti-A2aR IgG1 FES antibody; HCVR SEQ ID NO:59, LCVR SEQ ID NO:77 (antibody, V domains shown)
VH: B5 VH with I48M, A68V, L70M, K74T, S76T
VL: B1 VL with I29L, S32R, F41Y, F94Y
modifications: IgG1 FES constant regions
B13: Hu3F8-H4/Hu3F8-L1: humanized anti-A2aR IgG1 FES antibody; HCVR SEQ ID NO:67, LCVR SEQ ID NO:84 (antibody, V domains shown)
VH: B5 VH with T24A, A28T, S31R, A58T, H61N, S76T, H109Q
VL: B1 VL with F94Y
B14: Hu3F6-H5/Hu3F6-L1: humanized anti-A2aR IgG1 FES antibody; HCVR SEQ ID NO:62, LCVR SEQ ID NO:76 (antibody, V domains shown)
VH: B5 VH with H61A
VL: B1 VL with I29L, S32R, F94Y
B15: Hu3F8-H2/Hu3F8-L2: humanized anti-A2aR IgG1 FES antibody; HCVR SEQ ID NO:65, LCVR SEQ ID NO:85 (antibody, V domains shown)
VH: B2 VH with Q1E, F32Y, Y54S, Q59H, D66G, R72V, G97L
VL: B1 VL with F41Y, F94Y
B16: Hu3F8-H6/Hu3F8-L1: humanized anti-A2aR IgG1 FES antibody; HCVR SEQ ID NO:70, LCVR SEQ ID NO:84 (antibody, V domains shown)
VH: B1 VH with T24A, F32Y, Y54S, Q59H, D66G, G97L
VL: B1 VL with F94Y
B17: Hu3F6-H5/Hu3F6-L2: humanized anti-A2aR IgG1 FES antibody; HCVR SEQ ID NO:62, LCVR SEQ ID NO:77 (antibody, V domains shown)
VH: B5 VH with H61A
VL: B1 VL with I29L, S32R, F41Y, F94Y

Biological target: human A2aR (Homo sapiens, UniProt P29274)
Assay: Binding of humanized anti-A2aR antibodies in transfected Expi293F cell supernatant to human A2aR on HEK293 cells (FACS, MFI)
Settings: supernatant normalized to 1 μg/ml antibody; HEK293 cells stably overexpressing human A2aR; greater MFI = stronger binding; parental value average of triplicate
Protocol: Briefly, HEK293 cells that stably overexpress human A2aR (HEK-hA2aR OCL, BPS Bioscience, Cat. 79381) were collected from fresh culture. Cells were then resuspended in FACS buffer (1×DPBS/1% FBS) at 10^6/ml concentration. One hundred microliters (100 μl) of cells were aliquoted into each well of a 96 well plates. After centrifugation, cell pellets in each well were then resuspended with 100 μl normalized supernatant samples containing 1 μg/ml humanized anti-A2aR monoclonal antibody variants collected from transfected Expi293 cell culture. The supernatants were mixed with the cells and incubated on ice for 1 hours. After washing the mixtures of the supernatants containing expressed antibodies and the A2aR-expressing cells with FACS buffer, one hundred microliters (100 μl) of 1:400 diluted PE-conjugated anti-human Fc secondary antibody (Jackson Immuno Research, Cat. 109-116-098) was added to each well followed by an incubation for 30 minutes on ice. After washes with FACS buffer, stained cells were resuspended in 150 μl of 7-AAD (Biolegend, Cat. 420404) diluted 1:100 in 1×DPBS buffer and incubate for 5 minutes in the dark at room temperature before FACS analysis. The mean fluorescence intensity (MFI) was obtained using Guava 11HT or 5HT (Luminex). Data was analyzed using Flowjo software.
As shown in Tables 22-24, exemplary humanized anti-A2aR antibodies bind to A2aR expressed on a cell surface. A greater MFI value means stronger binding of the exemplary antibody to A2aR expressed on a cell surface.

human A2aR, sequence (P29274 whole entry): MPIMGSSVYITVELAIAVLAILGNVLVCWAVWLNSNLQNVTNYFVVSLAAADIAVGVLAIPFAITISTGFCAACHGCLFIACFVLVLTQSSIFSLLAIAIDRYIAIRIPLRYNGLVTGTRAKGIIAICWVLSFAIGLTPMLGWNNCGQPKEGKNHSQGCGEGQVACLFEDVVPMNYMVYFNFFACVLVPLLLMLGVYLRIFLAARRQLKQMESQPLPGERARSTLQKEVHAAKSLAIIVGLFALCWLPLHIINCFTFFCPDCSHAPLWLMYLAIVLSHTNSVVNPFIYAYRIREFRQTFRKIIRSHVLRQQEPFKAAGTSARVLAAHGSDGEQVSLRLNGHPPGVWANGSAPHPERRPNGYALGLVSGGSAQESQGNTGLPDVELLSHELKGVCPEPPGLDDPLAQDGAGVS

| Molecule | binding to human A2aR on cell surface, mean fluorescence intensity (MFI) |
| --- | --- |
| B1 | 178 |
| B2 | 62 |
| B3 | 165 |
| B4 | 145 |

Same assay, conditions: supernatant with 1 μg/ml antibody; HEK293 overexpressing human A2aR; heavy chain (row) x light chain

| Molecule | MFI, binding to human A2aR on cell surface (3F6-9G5 derived) | MFI, binding to human A2aR on cell surface (3F8-12E9 derived) |
| --- | --- | --- |
| B5 | 21 |  |
| B6 |  | 58 |
| B7 |  | 64 |
| B8 |  | 147 |
| B9 |  | 131 |
| B10 | 200 |  |
| B11 | 12 |  |
| B12 | 146 |  |
| B13 |  | 110 |
| B14 | 25 |  |
| B15 |  | 38 |
| B16 |  | 158 |
| B17 | 191 |  |
